Measured values from US20220048967A1 (published 2022).
Numbered stars: 1 amine (or outer) side, 2 acyl side, 3 side chain; on linkers, the order of the positions; unused ones are H or OH. Square brackets hold non-standard residues; d marks the D form. Side chains are listed from the residue outwards. Ends that are not written are not given here. * marks the point of attachment. C20 diacid = O=C(O)CCCCCCCCCCCCCCCCCCC(=O)*; γGlu = O=C(O)[C@H](CCC(=O)[*:2])N[*:1]; AEEA = NCCOCCOCC(=O)O; Aib = CC(C)(N)C(=O)O

T1: human GIP receptor (human, UniProt P48546 22-466)
T1 sequence (looked up): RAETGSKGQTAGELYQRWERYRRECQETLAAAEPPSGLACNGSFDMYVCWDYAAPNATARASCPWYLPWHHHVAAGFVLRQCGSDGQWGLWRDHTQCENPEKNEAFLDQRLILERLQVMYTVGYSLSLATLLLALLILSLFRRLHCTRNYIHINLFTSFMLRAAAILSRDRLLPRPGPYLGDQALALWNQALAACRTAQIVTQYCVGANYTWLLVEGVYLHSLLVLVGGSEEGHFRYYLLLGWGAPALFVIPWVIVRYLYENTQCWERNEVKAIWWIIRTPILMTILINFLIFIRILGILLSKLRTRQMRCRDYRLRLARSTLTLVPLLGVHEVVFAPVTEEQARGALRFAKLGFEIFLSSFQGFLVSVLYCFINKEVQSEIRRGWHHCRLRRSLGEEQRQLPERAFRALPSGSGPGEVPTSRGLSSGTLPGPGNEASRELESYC


Experiments:
human GLP-1 receptor = human GLP-1 receptor (human, UniProt P43220 24-463); experiment: cell-based or functional assay
human GIP receptor = molecular target: T1, human GIP receptor; experiment: cell-based or functional assay

| Binder | hGLP1R cAMP EC50 ratio (human GLP-1 receptor) | hGLP1R cAMP Rel EC50 (human GLP-1 receptor) | hGIPR cAMP EC50 ratio (human GIP receptor) | hGIPR cAMP Rel EC50 (human GIP receptor) |
| --- | --- | --- | --- | --- |
| Y[Aib]EGTFTSDYSILLDKIAQ[Aib]AFIEYLIEGGPSSGAPK([AEEA-AEEA-γGlu-C20 diacid])PS-NH2 (N-terminus assumed; SMILES CC[C@H](C)[C@H](NC(=O)[C@H](CCCCN)NC(=O)[C@H](CC(=O)O)NC(=O)[C@H](CC(C)C)NC(=O)[C@H](CC(C)C)NC(=O)[C@@H](NC(=O)[C@H](CO)NC(=O)[C@H](Cc1ccc(O)cc1)NC(=O)[C@H](CC(=O)O)NC(=O)[C@H](CO)NC(=O)[C@@H](NC(=O)[C@H](Cc1ccccc1)NC(=O)[C@@H](NC(=O)CNC(=O)[C@H](CCC(=O)O)NC(=O)C(C)(C)NC(=O)[C@@H](N)Cc1ccc(O)cc1)[C@@H](C)O)[C@@H](C)O)[C@@H](C)CC)C(=O)N[C@@H](C)C(=O)N[C@@H](CCC(N)=O)C(=O)NC(C)(C)C(=O)N[C@@H](C)C(=O)N[C@@H](Cc1ccccc1)C(=O)N[C@H](C(=O)N[C@@H](CCC(=O)O)C(=O)N[C@@H](Cc1ccc(O)cc1)C(=O)N[C@@H](CC(C)C)C(=O)N[C@H](C(=O)N[C@@H](CCC(=O)O)C(=O)NCC(=O)NCC(=O)N1CCC[C@H]1C(=O)N[C@@H](CO)C(=O)N[C@@H](CO)C(=O)NCC(=O)N[C@@H](C)C(=O)N1CCC[C@H]1C(=O)N[C@@H](CCCCNC(=O)COCCOCCNC(=O)COCCOCCNC(=O)CC[C@H](NC(=O)CCCCCCCCCCCCCCCCCCC(=O)O)C(=O)O)C(=O)N1CCC[C@H]1C(=O)N[C@@H](CO)C(N)=O)[C@@H](C)CC)[C@@H](C)CC) [Example 46] | 0.0969 | 0.687 nM | 0.828 | 0.172 nM |
| Y[Aib]EGTFTSDYSILLDKIAQ[Aib]AFIEYLIEGGPSSK([AEEA-AEEA-γGlu-C20 diacid])APPPS-NH2 (N-terminus assumed; SMILES CC[C@H](C)[C@H](NC(=O)[C@H](CCCCN)NC(=O)[C@H](CC(=O)O)NC(=O)[C@H](CC(C)C)NC(=O)[C@H](CC(C)C)NC(=O)[C@@H](NC(=O)[C@H](CO)NC(=O)[C@H](Cc1ccc(O)cc1)NC(=O)[C@H](CC(=O)O)NC(=O)[C@H](CO)NC(=O)[C@@H](NC(=O)[C@H](Cc1ccccc1)NC(=O)[C@@H](NC(=O)CNC(=O)[C@H](CCC(=O)O)NC(=O)C(C)(C)NC(=O)[C@@H](N)Cc1ccc(O)cc1)[C@@H](C)O)[C@@H](C)O)[C@@H](C)CC)C(=O)N[C@@H](C)C(=O)N[C@@H](CCC(N)=O)C(=O)NC(C)(C)C(=O)N[C@@H](C)C(=O)N[C@@H](Cc1ccccc1)C(=O)N[C@H](C(=O)N[C@@H](CCC(=O)O)C(=O)N[C@@H](Cc1ccc(O)cc1)C(=O)N[C@@H](CC(C)C)C(=O)N[C@H](C(=O)N[C@@H](CCC(=O)O)C(=O)NCC(=O)NCC(=O)N1CCC[C@H]1C(=O)N[C@@H](CO)C(=O)N[C@@H](CO)C(=O)N[C@@H](CCCCNC(=O)COCCOCCNC(=O)COCCOCCNC(=O)CC[C@H](NC(=O)CCCCCCCCCCCCCCCCCCC(=O)O)C(=O)O)C(=O)N[C@@H](C)C(=O)N1CCC[C@H]1C(=O)N1CCC[C@H]1C(=O)N1CCC[C@H]1C(=O)N[C@@H](CO)C(N)=O)[C@@H](C)CC)[C@@H](C)CC) [Example 43] | 0.0777 | 0.862 nM | 1.28 | 0.112 nM |
| Y[Aib]EGTFTSDYSILLDKIAQ[Aib]AFIEYLIEGGPSSGAK([AEEA-AEEA-γGlu-C20 diacid])PPS-NH2 (N-terminus assumed; SMILES CC[C@H](C)[C@H](NC(=O)[C@H](CCCCN)NC(=O)[C@H](CC(=O)O)NC(=O)[C@H](CC(C)C)NC(=O)[C@H](CC(C)C)NC(=O)[C@@H](NC(=O)[C@H](CO)NC(=O)[C@H](Cc1ccc(O)cc1)NC(=O)[C@H](CC(=O)O)NC(=O)[C@H](CO)NC(=O)[C@@H](NC(=O)[C@H](Cc1ccccc1)NC(=O)[C@@H](NC(=O)CNC(=O)[C@H](CCC(=O)O)NC(=O)C(C)(C)NC(=O)[C@@H](N)Cc1ccc(O)cc1)[C@@H](C)O)[C@@H](C)O)[C@@H](C)CC)C(=O)N[C@@H](C)C(=O)N[C@@H](CCC(N)=O)C(=O)NC(C)(C)C(=O)N[C@@H](C)C(=O)N[C@@H](Cc1ccccc1)C(=O)N[C@H](C(=O)N[C@@H](CCC(=O)O)C(=O)N[C@@H](Cc1ccc(O)cc1)C(=O)N[C@@H](CC(C)C)C(=O)N[C@H](C(=O)N[C@@H](CCC(=O)O)C(=O)NCC(=O)NCC(=O)N1CCC[C@H]1C(=O)N[C@@H](CO)C(=O)N[C@@H](CO)C(=O)NCC(=O)N[C@@H](C)C(=O)N[C@@H](CCCCNC(=O)COCCOCCNC(=O)COCCOCCNC(=O)CC[C@H](NC(=O)CCCCCCCCCCCCCCCCCCC(=O)O)C(=O)O)C(=O)N1CCC[C@H]1C(=O)N1CCC[C@H]1C(=O)N[C@@H](CO)C(N)=O)[C@@H](C)CC)[C@@H](C)CC) [Example 45] | 0.0569 | 1.03 nM | 1.75 | 0.106 nM |
| Y[Aib]EGTFTSDYSILLDKIAQ[Aib]AFIEYLIEGGPSSGK([AEEA-AEEA-γGlu-C20 diacid])PPPS-NH2 (N-terminus assumed; SMILES CC[C@H](C)[C@H](NC(=O)[C@H](CCCCN)NC(=O)[C@H](CC(=O)O)NC(=O)[C@H](CC(C)C)NC(=O)[C@H](CC(C)C)NC(=O)[C@@H](NC(=O)[C@H](CO)NC(=O)[C@H](Cc1ccc(O)cc1)NC(=O)[C@H](CC(=O)O)NC(=O)[C@H](CO)NC(=O)[C@@H](NC(=O)[C@H](Cc1ccccc1)NC(=O)[C@@H](NC(=O)CNC(=O)[C@H](CCC(=O)O)NC(=O)C(C)(C)NC(=O)[C@@H](N)Cc1ccc(O)cc1)[C@@H](C)O)[C@@H](C)O)[C@@H](C)CC)C(=O)N[C@@H](C)C(=O)N[C@@H](CCC(N)=O)C(=O)NC(C)(C)C(=O)N[C@@H](C)C(=O)N[C@@H](Cc1ccccc1)C(=O)N[C@H](C(=O)N[C@@H](CCC(=O)O)C(=O)N[C@@H](Cc1ccc(O)cc1)C(=O)N[C@@H](CC(C)C)C(=O)N[C@H](C(=O)N[C@@H](CCC(=O)O)C(=O)NCC(=O)NCC(=O)N1CCC[C@H]1C(=O)N[C@@H](CO)C(=O)N[C@@H](CO)C(=O)NCC(=O)N[C@@H](CCCCNC(=O)COCCOCCNC(=O)COCCOCCNC(=O)CC[C@H](NC(=O)CCCCCCCCCCCCCCCCCCC(=O)O)C(=O)O)C(=O)N1CCC[C@H]1C(=O)N1CCC[C@H]1C(=O)N1CCC[C@H]1C(=O)N[C@@H](CO)C(N)=O)[C@@H](C)CC)[C@@H](C)CC) [Example 44] | 0.0918 | 0.752 nM | 1.11 | 0.128 nM |
